Assay results reported in the nanobody polyreactivity screen of Harvey et al. (2022).

Experiment: yeast display, Sf9 membrane polyspecificity reagent, FACS + sequencing; frameworks hold sequencing errors
In short: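 Galactose-induced (36–48 hours) yeast carrying a synthetic nanobody display library were exposed to 10% biotinylated, detergent-solubilized Sf9 membrane reagent at 4 °C for 1 hour. FACS followed streptavidin microbead enrichment, using low and high (top ~1%) gates for expression (anti-HA) and reagent binding (streptavidin). Colony PCR, MiSeq 2 × 250 sequencing and CDR-length filtering followed. Labels for polyreactivity reflect the gate of origin.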

| Sequence | polyreactivity (PSR sort gate) |
| --- | --- |
| QVQLVESGGGLVQAGGSLRLSCAASGRIFSRYTMGCYRQAPGKERELVAAISSRGGSTYYADSVKGRFTISRDNAKNTVYLQMNSLKPEDTAVYYCNTPSYSGSSPYDHWGQGTQVTVSS | high polyreactivity |
| QVQLVESGGGLVQAGGSLRLSCAASGRISGINVMGWYRQAPGKERELVAAISRSGARTYYADSVKGRFTISRDNAKNTVYLQMNSLKPEDTAVYYCNAANLKYPKYVQGDYWGQGTQVTVSS | high polyreactivity |
| QVHLVESGGGLVKAGGSLRISCAASGRTFVCYAMGCYRPAPGKERELVAAISSGGSTNYADSVKGRFTISRDNAKNTVYLLMICLKPEDTAVYYCNRRSYQRGWHWARGRYGFWGQGTQVTVSS | high polyreactivity |
| QVQLVESGGGLVQAGGSLRLSCAASGRNFAYYAMGWYRQEPGKERELVAVISKSGGSTNYADSVKGRFTISRDNAKNTVYLQMNSLKPEDTAVYYCAKRAYDPEMYYWGQGTQVTVSS | low polyreactivity |
| QVQLVESGGGLVQAGGSLRLSCAASGIIFRSYAMGWYRQAPGKERELVAAITSGGSTNYADSVKGRFTISRDNAKNTVYLQMHSLKPEDTAVYYCAARWPWYGKLRYYYWGQGTQVTVSS | high polyreactivity |
| QVQLVESGGGLVQAGGSLRLSCAASGFTFRRYAMGWYRQAPGKERELVAAITYSGTRTYYADSVKGRFTISRDIAKNTVYLEMNSLSPEDTAVYYCNAGVGYFVGTYYGFLPYDYWGQGTQVTVSS | high polyreactivity |
| QVQLVESGGGLVQAGGSLRLSCAPSGRIFYTKAMGWYRPAPGKERELVATIRISGGNTYYADSVKGRFTISRDNAKNTVYLQMNSLKPEDTAVYYCAARARPRYYRPPYDYWGQGTQVTVSS | high polyreactivity |
| QVQLVESGGGLVQAGGSLRLSCAASGSTFGYNTMGWYRQAPGKERELVASITGRGGSTYYADSVKGRFTISRDNAKNTVYLQMNSLKPEDTAVYYCAAAWKAYRRYGYWGQGTQVTVSS | high polyreactivity |
| QVQLVDSGGGLVQAGGSLRLSCAASGSTFIYYAMGWYRQAPGKEREFVAAISYRGGSTYYADSVKGRFTISRDNAKNTVYLQMNSLKPEDTAVYYCAASYRKWNDYWGQGTQVTVSS | high polyreactivity |
| QVQLVESGGCLVQAGGSLRLSCAASGLIFGRNVMGWYRQAPGKERELVAAISWSGGRTYYADSVKGRFSISRDNAKNTVYLQMNSLKPEDTAVYYCNARYSRVWYGCDYWGQGTQVTVSS | high polyreactivity |
| QVQLVESGGGLVQAGGSLRLSCAASGSIVRYYAMGWYSQAPGKERELVAAISYRGGTTYYADSVKGRFTISRDNAKNTVYLQMNSLKPEDTAVYYCAAGYKAAGWTQYGYWGQGTPVTVSS | high polyreactivity |
| QVQLGESGGGLVQAGGSVRLSCAASGRTFDFYALGWYRQAPGKERELVAAISSRGGSTYYADSVKGRFTISRDNAKNTVYLQMNSLKPEDTAVYYGAKDLGYRGRYNYWGQGTQVTVSS | low polyreactivity |
| QVQLVESGGGLVQAGGSLRLSCAASGSTFVPYTMGWYRQAPGKERELVAVITSGGSTNYADSVKGRFTISLDNAKNTVYLQMNSLKPEDTAVYYCDARRRGRKERGEDYWGQGTQVTVSS | high polyreactivity |
| QVQLVESGGGLVQAGGSLRLSCAASGSIFIQYAMGWYRQAPGKERELVAAINTSGGRTYYADSVKGRFTISRDNAKNTVYLLMNSLKPEDTAVYYCNADHFGWPWRVRILEDDYWGQGTQVTVSS | low polyreactivity |
| QLQLVDSGRGLVQAGGSLRLSSAASGSIFVTNGMGWYRQAPGKERELVAVISWGGGNTYYADSVKGRFTISRDNAKNTVYLQMNNLKPEDTAVYYCAVELYWDYYFTYDYWGQGTQVTVSS | low polyreactivity |
| QVQLVESGGGLVQAGGRLRLSCAASGFIFGTYTMGWYRQAPGKERELVAAITNGGSTYADSVKGRFTISRDNAKNTVYLQMISLKPEDTAVYYCAADYRGHSGAWYDYWGLGTQVTVSS | low polyreactivity |
| QVQLVESGGGLVQAGGSLRLSCAASGSIFIINAMGWYRQAPGKERELVAAINNGVNTYYADSVKGRFTISRDNAKNTVYLQMNSLKPEDTAVYYCAADPYFYYYGYDYWGQGTQVTVSS | low polyreactivity |
| QVQLVESGGGLVQAGGSLRLSCAASGSTFPFYDMGWYRQAPGKERELVAAIRYTGNTYYADSVKGRFTISRDNAKNTVYLQMNSLKPEDTAVYYCAADADYWAYGYWGQGTQVTVSS | low polyreactivity |
| QVQLVESGGGLVQAGGSLRLSCAASGIIFATNGMGWYRQAPGKEREFVASSTNGGSTNYADSVKGRFTISRDNAKNTVYLQMNSLKPEDTAVYYCAAAASDDYDYPTEYEYWGQGTQVTVSS | high polyreactivity |
| QVQLQESGGGLVQAGGSLRLSCAASGSIYDDTYMGWYRQAPGKERELVATIDSGSTTNYADSVKGRITISRDNAKNTVYLQMNSLKPEDTGVYYCAAADSHIDYFDYWGQGTQVTVSS | low polyreactivity |
| QVQLVESGGGLVQAGGSLRLSCAASGRLSDNVMGWYRQAPGKERELVAAISSSGGTTYYADSVKGRFTISRDNAKNTVYLQMNSLKPEDTAVYYCNARTRGKMDYWGQGTQVTVSS | high polyreactivity |

| Sequence | polyreactivity (PSR sort gate) |
| --- | --- |
| QVQLVESGAGLVQAGGSLRLRCAASGYTLGPYAMGWYRPAPGKERELVAAISWGGGRTYYADSVKGRFTISRDNAKNTVYLQMNSLKPEDTAVYDCAAKWSHVRDGPKYDYWGQGTQVTVSS | low polyreactivity |
| QVQLVESGGGLVQAGGSLRLSCAASGRTYNGYVMGGYRQAPGTEREFVAVINWSGGNTYDADSVKGRFTISRDNAKNTVSLQMNRLKPDDTAVYYCAPRRVRSYAYDYWGQGTQVTVSS | high polyreactivity |
| QVQLVESGGGLVQAGGSLGLSCAASGRIFWTYAMGWYRQAPGKERELVASITWSGGSTYYADSVKGRFTISRDNANNTDYLQMNSLKPEDTSVYYCNTDVLAPYDSGYWGQGTQVTVSS | low polyreactivity |
| QVQLVESGGGLVQEGGSLRLSCAASGIIFSIYAMGWYRQAPGKERELVAVISRSSGSTYYADSVKGRFTISRDNAKNTVYLQMNSLIPEDTSVYFCAARKNRAYGYWGQGTEVTVSS | high polyreactivity |
| QVQLVESGRRLVQAGGSLRLSCAASGRTFGFYAMGWYRQAPGKERELVAGITWSGGSTYYADSVKGRFTISRDNAKNTVYLQMNSLKPEDTAVYYCAADVWWYHYLLFDSWGQGTQVTVSS | low polyreactivity |
| QVQLVESGGGLVQAGGSLRLSCAASGSIFTFNSMGWYRQSPGKERELVAAIRWSSGRTYYADSVKGRFTISRDNAKNTVYLQMNSLKPEETAVYYCAAKDFGSFYDSGYDYWGQGTQVTVSS | high polyreactivity |
| QVQLVESGGGLVQAGGSLRLSCAASGSIFRQNAMGWYRQAPGKERELVAAISSSGGSTYYADSVKGRFTISRDNAKNTVYLQMNSLKPEDTAVYYCAARLRRTQTYSSGRPGDYWGQGTQVTVSS | high polyreactivity |
| QVQLVESGGGLVQAGGSLRLSCAASGNTFYYNAMGWYRQAPGKEREFVATITESGTSTYYADSVKGRFTISRDNAKNTVYLQMNSLKPEDTAVYYCAAQYWYVGGIAWYDYWGQGTQVTVSS | low polyreactivity |
| QVQLVESGGGLVQAGGSLRLICAASGFIFSSNAMGWYRQAPGKERELVAAITRSGGSTYYADSVKGRFTISRDNAKNTVYLQMNSLKPEDTAVYYCNAYVWRSGYDYWGQGTQVTVSS | high polyreactivity |
| QVQLVESGGGLVQAGGSLRLSCAASGIILPYYAMGWYRPAPGKEREFVATISSDGTSTYYADSVKGRFTISRDNAKNTVYLQMNSLKPEDTAVYYCDARIRQNPGGDNSWGQGTQVTVSS | low polyreactivity |
| QVQLVESGGGLVQAGGSLRLSCAASGSIFITYAMGWYRQAPGKEMELVAAIRDSGDRTYYADSVKGRFTISRDNAKNTVYLQMNSLKPVDTAVYYCNARWEEPLKYDYWGQGTQVTVSS | low polyreactivity |
| QVQLVESGGGLVQAGGSLRLSCAASGRILYRYVMGRYRQAPGKERELVAGISWSGGSTYYADSVKGRFTISSDTAKNTVYLQMNSLKPEVTAVYYCASTFRTYAPRPYQGDYWGQGTQVTVSS | low polyreactivity |
| QVQLVESGGGLVQAGGSLRLSCASSGFTLYGYTKGWYRQAPGKERELVAAISGSGGRTYYADSVKGRFTISRDNAKNTVYLHMNTLKPEDNAVYYCAADSRGTCDGYDYWGQGTQVTVSS | high polyreactivity |
| QVQLVESGGGLVQAGGSLRLSCAASGYIFLFYGMGWYRQAPGKERELVASITGTGGNTYYADSVKWRFTISRDNAKNTVYLQMNSLKPEDTAVDYCYADDGYSWGYAYYYSELDYWGQGTQVTVSS | low polyreactivity |
| QVQLVESGGGLVQAGGSLRLSCAASGSIFLKYVMGWYRQATGKEMELVAAISSAGGTYYADSVKGRFTISRDNEKYTVYLQMICLKPEDTAVYYCGRRPYRGSYAYDYWGQGSQVTVSS | low polyreactivity |
| QVQLVESGGGLVQAGGSLRLSCAASGRTFRVYAMGWYRQAPGKERELVASITRGGGTYADSVKGRFTISRDNAKNTVSLQMNSLKPEDTAVYYCNADSRRRRIHYDYWGQGTQVTVSS | high polyreactivity |
| QVQLVESGGGLVQAGGSLRLSCAASGLTFRRYAMGWYRQAPGKVRELVAGISRGGSTYYADSVKGRFTISRDNAKNTVYLQMNSLKPEDTAVYYCAAYNRGTYPVQPVPYDMDYWGQGTQVTVSS | low polyreactivity |
| QVQLVESGGGLVQAGGSLRLSCAASGLTFGRNAMGWYRQAPGKERELVAAITFNGGSTYYADSVKGRFTISRDNAKNTVYLQMNSLKPEDTAVYYCAARLWRRSRFDYWGQGTQVTVSS | high polyreactivity |
| QVQLVESGGGLVQAGGSLRLSCAASGRIFYQYAMGWYRQAPGKERELVAAISWSGGNTYYADSVKGRFTISRDNAKKTVYFQMNSLKPEDPAVYYCNRYWYRDRLWLYDYWGQGTQVTVSS | high polyreactivity |
| QVQLVESGGRLVQAGGSLRLSCAASGRTFPYNAMGWSRQAPRKERELVAAITWSGGSTYYADSVKGRFTISRDNAKNTVYLQMNSLKPEDTAVYYCAADEIYGYDYWGQGTQVTVSS | high polyreactivity |
